The target of test [1] is extracellular domain of human LEPR with an N-terminal myc-myc tag, GPI-anchored on HEK293 cells (human) (UniProt P48357). In words: FACS, secondary alone, HEK293/hLEPR-GPI, with 1 µM Leptin. A general note: A flow cytometer gives signals particle by particle.
Test [2] has the same target. In words: FACS, secondary alone, HEK293/hLEPR-GPI, no added Leptin.

Sequence of extracellular domain of human LEPR with an N-terminal myc-myc tag, GPI-anchored on HEK293 cells (human) (P48357 22-839 limits assumed): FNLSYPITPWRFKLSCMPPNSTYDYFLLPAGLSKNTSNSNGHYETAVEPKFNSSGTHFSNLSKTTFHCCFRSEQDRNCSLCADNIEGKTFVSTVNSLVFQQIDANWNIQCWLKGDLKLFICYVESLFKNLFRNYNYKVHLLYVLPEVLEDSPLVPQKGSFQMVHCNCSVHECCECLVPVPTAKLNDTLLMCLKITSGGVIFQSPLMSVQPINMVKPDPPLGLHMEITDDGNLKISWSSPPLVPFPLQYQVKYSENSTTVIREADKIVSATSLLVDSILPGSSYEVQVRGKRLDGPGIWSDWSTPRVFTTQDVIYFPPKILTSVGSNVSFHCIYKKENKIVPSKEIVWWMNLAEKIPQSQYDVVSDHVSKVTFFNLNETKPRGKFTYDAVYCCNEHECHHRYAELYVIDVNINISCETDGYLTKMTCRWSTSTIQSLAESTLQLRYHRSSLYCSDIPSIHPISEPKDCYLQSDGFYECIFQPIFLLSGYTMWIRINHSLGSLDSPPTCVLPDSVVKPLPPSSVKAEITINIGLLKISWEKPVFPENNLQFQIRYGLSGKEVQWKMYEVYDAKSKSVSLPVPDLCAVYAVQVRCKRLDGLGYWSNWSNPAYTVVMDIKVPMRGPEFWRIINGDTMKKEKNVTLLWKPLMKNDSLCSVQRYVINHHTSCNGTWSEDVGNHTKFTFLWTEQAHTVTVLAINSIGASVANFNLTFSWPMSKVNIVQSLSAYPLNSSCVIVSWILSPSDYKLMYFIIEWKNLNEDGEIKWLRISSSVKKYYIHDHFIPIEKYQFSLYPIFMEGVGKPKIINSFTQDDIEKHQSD

With Anti-human IgG secondary antibody alone, the Binding Ratio in test [1] and in test [2] was 3 fold throughout.
For Anti-mouse IgG secondary antibody alone, the Binding Ratio in test [1] and in test [2] was 2 fold each time.

Values taken from patent US12715927.
